Here are results for 3 molecules from PMC11079029, “Intramolecular autoinhibition regulates the selectivity of PRPF40A tandem WW domains for proline-rich motifs” (Nature Communications, 2024).

Where a chain is given by its changes, count along the chain named. Several values for one entry are separate records, joined by “and”; a condition that tells them apart may be missing. Equal entries are not always repeated.

Common to all, as to conditions: both partners purified
The target of assay [1] is T1, PRPF40A N-ext-WW12 mutant (PPVP and PALPP motifs changed to alanine residues) (human, UniProt O75400 56-236, 78-81 PPVP to AAAA | 123-127 PALPP to AAAAA).
T1 construct: PRPF40A isoform 1, residues 56-236, with the two motifs PPVP (78-81) and PALPP (123-127) changed to alanine residues; made by site-directed mutagenesis of N-ext-WW12; also called Nter Ext WW12 MUTANT; mutated version of the N-extWW12; source: E. coli BL21(DE3), purified (Ni-NTA, TEV cleavage, reverse Ni-NTA, SEC); not shown: His6, N-terminal, cleaved
T1 sequence (looked up): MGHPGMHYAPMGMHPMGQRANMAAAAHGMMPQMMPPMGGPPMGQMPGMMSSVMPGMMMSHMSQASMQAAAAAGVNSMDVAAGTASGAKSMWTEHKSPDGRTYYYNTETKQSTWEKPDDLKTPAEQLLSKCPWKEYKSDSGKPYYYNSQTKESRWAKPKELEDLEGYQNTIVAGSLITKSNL
Nature of the assay: ITC; MicroCal PEAQ-ITC, 25 °C, 20 mM sodium phosphate pH 6.5, 100 mM NaCl; PRPF40A constructs and GB1-tagged SF1 16-mer peptides; who was in the syringe is not stated for these panels (Fig. 2B, Fig. 5C); one-site model. (In ITC the heat of successive injections is recorded.)

The target in assay [2] is T2, PRPF40A N-ext-WW12 (residues 56-236) (human, UniProt O75400 56-236).
T2 construct: PRPF40A isoform 1, residues 56-236: N-terminal proline-rich region and both WW domains; pETM11 vector; also called Nter Ext WW12; N-terminal extended WW12 construct; source: E. coli BL21(DE3), purified (Ni-NTA, TEV cleavage, reverse Ni-NTA, SEC); not shown: His6, N-terminal, cleaved
T2 sequence (looked up): T1 sequence (looked up) with A23P, A24P, A25V, A26P, A68P, A70L, A71P, A72P
The description is as above.

Assay [3] addresses T3, GB1-polyproline peptide P29.
T3 construct: common N-terminal residues after the TEV site (TEVsite-GAMSGS-peptide-SGSN); 29 consecutive prolines; common C-terminal residues; pET24 vector with 6xHis, GB1 and TEV site as N-terminal cassette, not cleaved; also called polyproline length 29; source: E. coli BL21(DE3), purified (Ni-NTA, SEC); not shown: GB1, N-terminal, kept
T3 chain: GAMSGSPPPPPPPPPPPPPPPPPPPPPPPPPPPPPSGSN
Nature of the assay: ITC; MicroCal PEAQ-ITC, 25 °C, 20 mM sodium phosphate pH 6.5, 100 mM NaCl; GB1-polyproline peptides in the cell, WW12 in the syringe (N sites >1: more than one WW tandem on one peptide); one-site model; apparent.

Assay [4] concerns the target T4, GB1-polyproline peptide P25.
T4 construct: common N-terminal residues after the TEV site (TEVsite-GAMSGS-peptide-SGSN); 25 consecutive prolines; common C-terminal residues; pET24 vector with 6xHis, GB1 and TEV site as N-terminal cassette, not cleaved; also called polyproline length 25; source: E. coli BL21(DE3), purified (Ni-NTA, SEC); not shown: GB1, N-terminal, kept
T4 chain: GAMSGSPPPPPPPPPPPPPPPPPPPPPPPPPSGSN
The assay is described as above.

Assay [5] concerns the target T5, GB1-polyproline peptide P22.
T5 construct: common N-terminal residues after the TEV site (TEVsite-GAMSGS-peptide-SGSN); 22 consecutive prolines; common C-terminal residues; pET24 vector with 6xHis, GB1 and TEV site as N-terminal cassette, not cleaved; also called polyproline length 22; source: E. coli BL21(DE3), purified (Ni-NTA, SEC); not shown: GB1, N-terminal, kept
T5 chain: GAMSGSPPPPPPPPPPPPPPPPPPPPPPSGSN
The description is as above.

The target of assay [6] is T6, GB1-SF1 Pro CD (residues 539-639) (UniProt Q15637 539-639).
T6 construct: SF1 (splicing factor 1) residues 539-639; pET24 vector with 6xHis, GB1 and TEV site as N-terminal cassette, not cleaved; source: E. coli BL21(DE3), purified (Ni-NTA, SEC); not shown: GB1, N-terminal, kept
T6 sequence (looked up): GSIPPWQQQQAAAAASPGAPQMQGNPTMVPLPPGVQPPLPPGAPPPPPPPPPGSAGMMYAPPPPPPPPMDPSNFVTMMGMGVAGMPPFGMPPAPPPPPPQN
The assay is described as follows: ITC; MicroCal PEAQ-ITC, 25 °C, 20 mM sodium phosphate pH 6.5, 100 mM NaCl; GB1-tagged SF1/SF3A1 constructs in the syringe, WW12 in the cell (N sites <1: more than one WW tandem on one construct); one-site model; apparent.

For assay [7], the target named is T7, GB1-SF1 Pro ABCD (residues 410-639) (UniProt Q15637 410-639).
T7 construct: SF1 (splicing factor 1) residues 410-639, the complete proline-rich C-terminal region; pET24 vector with 6xHis, GB1 and TEV site as N-terminal cassette, not cleaved; also called complete C-terminal region of SF1; source: E. coli BL21(DE3), purified (Ni-NTA, SEC); not shown: GB1, N-terminal, kept
T7 sequence (looked up): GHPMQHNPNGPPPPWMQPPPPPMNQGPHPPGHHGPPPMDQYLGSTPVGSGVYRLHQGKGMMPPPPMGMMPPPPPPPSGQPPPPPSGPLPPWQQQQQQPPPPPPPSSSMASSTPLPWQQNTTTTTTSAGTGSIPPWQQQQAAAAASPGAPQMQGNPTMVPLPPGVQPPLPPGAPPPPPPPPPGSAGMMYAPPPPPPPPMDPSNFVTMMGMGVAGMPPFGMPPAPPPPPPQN
The assay is described as above.

Assay [8] addresses T8, GB1-SF1 Pro BCD (residues 468-639) (UniProt Q15637 468-639).
T8 construct: SF1 (splicing factor 1) residues 468-639; pET24 vector with 6xHis, GB1 and TEV site as N-terminal cassette, not cleaved; source: E. coli BL21(DE3), purified (Ni-NTA, SEC); not shown: GB1, N-terminal, kept
T8 sequence (looked up): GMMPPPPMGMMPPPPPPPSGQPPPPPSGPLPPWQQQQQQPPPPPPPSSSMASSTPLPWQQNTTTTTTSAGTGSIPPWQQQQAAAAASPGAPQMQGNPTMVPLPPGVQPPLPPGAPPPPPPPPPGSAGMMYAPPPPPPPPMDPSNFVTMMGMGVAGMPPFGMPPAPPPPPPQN
The assay is described as above.

In assay [9] the target is T9, GB1-SF3A1 C-ter Pro (residues 552-683) (UniProt Q15459 552-683).
T9 construct: pET24 vector with 6xHis, GB1 and TEV site as N-terminal cassette, not cleaved; source: E. coli BL21(DE3), purified (Ni-NTA, SEC); not shown: GB1, N-terminal, kept
T9 sequence (looked up): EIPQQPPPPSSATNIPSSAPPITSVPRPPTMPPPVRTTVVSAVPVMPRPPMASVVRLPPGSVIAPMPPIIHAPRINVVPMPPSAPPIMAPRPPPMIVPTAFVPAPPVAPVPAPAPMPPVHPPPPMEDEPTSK
The assay is described as above.

For assay [10], the target named is T10, GB1-SF1 Pro BC (residues 468-594) (UniProt Q15637 468-594).
T10 construct: SF1 (splicing factor 1) residues 468-594; pET24 vector with 6xHis, GB1 and TEV site as N-terminal cassette, not cleaved; source: E. coli BL21(DE3), purified (Ni-NTA, SEC); not shown: GB1, N-terminal, kept
T10 sequence (looked up): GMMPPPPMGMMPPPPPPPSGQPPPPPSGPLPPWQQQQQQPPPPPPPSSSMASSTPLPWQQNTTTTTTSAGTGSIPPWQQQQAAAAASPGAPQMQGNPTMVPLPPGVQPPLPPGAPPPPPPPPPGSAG
The assay is described as above.

Assay [11] concerns the target T11, PRPF40A WW12 (tandem WW domains, residues 141-236) (human, UniProt O75400 141-236).
T11 construct: pETM11 vector, NcoI/KpnI; 15N or 13C,15N labelled for NMR; also called PRPF40A WW tandem; PRPF40A tandem WW domains; source: E. coli BL21(DE3), purified (Ni-NTA, TEV, reverse Ni-NTA, SEC); not shown: His6, N-terminal, cleaved
The assay is described as follows: ITC; 16-mer SF1 and polyproline peptides (N-terminal GB1 tagged) in the cell and PRPF40A construct in the syringe (said for Fig. 2; not told for Fig. 5C); 25 °C, 20 mM sodium phosphate pH 6.5, 100 mM NaCl; one-site model; apparent affinities.

Assay [12] concerns the target T12, PRPF40A N-ext-WW12 (residues 56-236) (human, UniProt O75400 56-236).
T12 construct: PRPF40A isoform 1, residues 56-236: N-terminal proline-rich region and the WW tandem; also called N-terminal extended WW12 construct; source: E. coli BL21(DE3), purified (Ni-NTA, TEV, reverse Ni-NTA, SEC); not shown: His6, N-terminal, cleaved
T12 sequence (looked up): T1 sequence (looked up) with A23P, A24P, A25V, A26P, A68P, A70L, A71P, A72P
Described as above.

Assay [13] deals with T13, PRPF40A N-ext-WW12 mutant (PPVP/PALPP motifs changed to alanine residues) (human, UniProt O75400 56-236, PPVP, residues 78-81, to alanine residues | PALPP, residues 123-127, to alanine …).
T13 construct: PRPF40A isoform 1, residues 56-236, with the motifs PPVP (78-81) and PALPP (123-127) changed to alanine residues; Made by site-directed mutagenesis; also called mutant version of the N-ext-WW12 construct; mutated version of the N-extWW12; source: E. coli BL21(DE3), purified (Ni-NTA, TEV, reverse Ni-NTA, SEC); not shown: His6, N-terminal, cleaved
T13 sequence (looked up): T1 sequence (looked up)
The description is as above.

B1: GB1-SF1(575-590) 16-mer peptide, SF1 PRPF40A WW binding site (peptide)
chain: GAMSGSPPLPPGAPPPPPPPPPSGSN
notes: common N-terminal residues after the TEV site (TEVsite-GAMSGS-peptide-SGSN); SF1 (splicing factor 1) residues 575-590; common C-terminal residues; pET24 vector with 6xHis, GB1 and TEV site as N-terminal cassette, not cleaved for ITC; also called SF1_(WWbs); SF1 WWbs; source: E. coli BL21(DE3), purified (Ni-NTA, SEC); not shown: GB1, N-terminal, kept
For the molecule B1, the Kd in [1] is 2.44 µM and 1.98 µM and 2.21 µM; in assay [2] it was 9.19 µM and 8.22 µM and 8.71 µM.

B2: PRPF40A WW12 (tandem WW domains, residues 141-236) (domain or fragment, human, UniProt O75400 141-236, looked up)
chain: GAKSMWTEHKSPDGRTYYYNTETKQSTWEKPDDLKTPAEQLLSKCPWKEYKSDSGKPYYYNSQTKESRWAKPKELEDLEGYQNTIVAGSLITKSNL
notes: pETM11 vector (NcoI/KpnI); also called PRPF40A WW tandem; isolated WW domains; source: E. coli BL21(DE3), purified (Ni-NTA, TEV cleavage, reverse Ni-NTA, SEC); not shown: His6, N-terminal, cleaved
On to B2, for which the “stoichiometry N” value in assay [3] was 2.38 and 2.56 and 2.47; in [4] it was 2.21 and 2.39 and 2.3; in assay [5], 1.41 and 1.37 and 1.39. For the same molecule, the Kd in assay [6] is 2.83 µM and 4.32 µM and 4.26 µM and 3.8 µM; in [7], 5.41 µM and 4.4 µM and 4.91 µM; in assay [8], 2.93 µM and 4.36 µM and 3.65 µM; in assay [9] it was 23.8 µM and 14.8 µM and 19.3 µM; in assay [10] it was 3.63 µM and 7.76 µM and 9.11 µM and 6.83 µM.

B3: GB1-tagged SF1 575-590 peptide (SF1 PRPF40A WW binding site) (peptide)
chain: GAMSGSPPLPPGAPPPPPPPPPSGSN
notes: common N-terminal residues after the TEV site (TEVsite-GAMSGS-peptide-SGSN); SF1 residues 575-590; common C-terminal residues; pET24 vector with 6xHis, GB1 and TEV site as N-terminal cassette; not cut with TEV for ITC and NMR titrations; also called SF1_(WWbs); source: E. coli BL21(DE3), purified (Ni-NTA, SEC), GB1 tag kept; not shown: GB1, N-terminal, kept
Consider B3, for which the figures for the Kd in assay [11] and in [12] were 1.4 µM and 8.8 µM, respectively. Besides, the binding result in [13] was “binds”.

As usually defined, the stoichiometry N is a count of units in the complex or per binding partner.
